Patent US20170267768A1 (University of California, published 2017)
Positions count from the first letter of the chain named.

How the values were obtained:
[1] = molecular target: T1, Staphylococcus aureus Protein A (Staphylococcus aureus, UniProt P38507 37-477); assay: Protein A binding measured as in Example 1, compared to TS1C
Procedure: (§1) Protein A binding for multiple samples was determined as follows: scFvs expressed by mammalian cells were obtained from cultures by centrifugation at 4000 g for 15 minutes to remove cells. The scFv titer in the supernatant was determined using Fortebio. Protein A binding was assayed using a 96 well Protein A plate (Protein A 96 well protein purification plate (GE Healthcare: Life Sciences, Protein A HP MultiTrap®) which contains Protein A-conjugated resin in wells with porous bottoms, allowing liquid in the wells to be collected from underneath via centrifugation or suction. Each well of the plate was washed with 1×PBS, and supernatant containing 250 μg of protein was loaded into each well. The supernatant is then separated from the Protein A resin using a vacuum manifold (Whatman®) with 10 mbar of pressure and the flow-through from each well separately collected into empty wells of a standard 96 well plate. The wells of the Protein A plate were then washed with 600 μL of 1×PBS (pH 7.6). To elute the resin-bound Ab, 200 μL of 0.1M acetic acid was added to each well and incubated at room temperature for 3-10 minutes. The plate was placed over a second plate to capture eluate and centrifuged at 100×g for 2 minutes, and 20 μL of 1M Tris, pH 8.0 was added to neutralize the Abs in the eluate. To determine the percentage of Protein A binding, the concentration of scFv remaining in the flow-through was compared to the amount of protein (250 ug) loaded originally.
(§2) The fold improvement in Protein A binding capacity (as compared to TS1C) was measured as described in Example 1.

[2] = molecular target: T2, His6-tagged recombinant human EphA2 protein (human, UniProt P29317 25-534); assay: BLI (Octet Red 96); His6-EphA2 on anti-His sensors; slope of association curve of scFv-PEG-DSPE conjugate; TS1C printed as 100
T2 construct: also called his-tagged recombinant, human EphA2; human EphA2 with c-terminal His6
Description: (§3) A nucleic acid encoding human EphA2 with c-terminal His6 appended was cloned into expression vector pCEP4 (Invitrogen® # V044-50) and transiently expressed in FreeStyle™ 293 cells (Invitrogen® #K900001) following polyethylenenimine transfection. The His6-tagged recombinant human EphA2 protein was purified from the cell culture medium using Ni-NTA Sepharose™ resin (Quiagen®, USA). Anti-His sensors for the fortéBIO® Octet Red 96 system (fortéBIO®-Pall® #18-5116) were coated with his-tagged recombinant, human EphA2 at concentration of 10 μg/ml protein for 300 sec, and a background run was carried out in PBS for 60 sec. For scFv-PEG-DSPE conjugates, the sensors were then incubated with 2.5 μg/ml (Study 1) or 4.0 μg/ml (Study 2) of the conjugate in PBS, pH 7.4, and the slopes of association curves were determined between 3-13 seconds of incubation, corrected for the buffer-only background, and compared across the variants. ScFv-linked liposomes were incubated with the sensors in PBS at 0.025 mM of liposome phospholipid, the slopes of the association curves were determined between 3-20 seconds of incubation, corrected for the buffer-only background, and compared across the variants.
(§4) Results are shown below in Table 6, in which column A gives scFv identifiers; column B indicates percent yield of scFv/lipopolymer linker conjugates; column C gives percent scFv-conjugate (not liposome-bound) EphA2 binding on-rate; column D gives percent scFv-conjugated-liposome EphA2 binding on-rate; and columns E (Study 1) and F (study 2) give percent antigen binding on-rate remaining in the scFv-conjugate (not liposome-bound) following thermal stress.

[3] = molecular target: T2, His6-tagged recombinant human EphA2 …; assay: BLI (Octet Red 96); His6-EphA2 on anti-His sensors; scFv-PEG-DSPE conjugate at 4.0 ug/ml after thermal stress
Description: as §3, §4

[4] = molecular target: T2, His6-tagged recombinant human EphA2 …; assay: BLI (Octet Red 96); His6-EphA2 on anti-His sensors; scFv-PEG-DSPE conjugate at 2.5 ug/ml after thermal stress
Description: as §3, §4

[5] = molecular target: T2, His6-tagged recombinant human EphA2 …; assay: BLI (Octet Red 96); His6-EphA2 on anti-His sensors; slope of association curve of scFv-linked liposomes at 0.025 mM phospholipid; TS1C printed as 100
Description: as §3, §4

[6] = molecular target: T1, Staphylococcus aureus Protein A; assay: Protein A binding measured as in Example 1; TS1C is the reference
Procedure: as §1, with “The plate was placed over a second plate to capture eluate and centrifuged at 100×g for 2 minutes, and 20 μL of 1M Tris, pH 8.0 was added to neutralize the Abs in the eluate. To determine the percentage of Protein A binding, the concentration of scFv remaining in the flow-through was compared to the amount of protein (250 ug) loaded originally.” left out
as §2

[7] = molecular target: T3, murine EphA2 on CT-26 cells (mouse, UniProt Q03145 26-977); assay: CLIA: scFv-decorated fluorescent NTA(Ni) liposomes on CT-26 cells, FACS
T3 construct: whole, on cells
Procedure: The concentration of liposomal phospholipid was then determined after acid digestion using spectrophotometric phosphomolybdate method. Prior to incubation with cells the liposomes were diluted to 0.4 mM phospholipid in Hank's Balanced Salt Solution (HBSS), and NiSO₄ was added to 0.1 mM. The hexahistidine scFvs were diluted into cell culture medium (see below) to the concentration of 25 μg/mL of scFv and mixed with equal volume of the liposome solution (“fluorescent NTA-liposome/scFv mixture”).
By measuring fluorescence of the cells prior to and after incubation/wash with imidazole, which disrupts His6/Ni complexes and thereby releases and removes external (but not internalized) histidine-tagged scFv, the percentage of Ab internalized is quantitated. The test cells (human cancer cell lines OVCAR-3 and U-251 and the murine cancer cell line CT-26) were grown in the adherent state in […] cell culture medium supplemented with 10% FBS, 1× penicillin/streptomycin, and L-glutamine, to 90% confluence and harvested using 0.25% trypsin-EDTA. […] The relative amounts of cell-associated liposomes were evaluated by FACS (Cy5 fluorescence channel). The “binding” amount included both cell surface-bound and internalized liposomes and was proportional to cell fluorescence without imidazole wash. […]

T2 sequence (P29317 25-534 limits assumed): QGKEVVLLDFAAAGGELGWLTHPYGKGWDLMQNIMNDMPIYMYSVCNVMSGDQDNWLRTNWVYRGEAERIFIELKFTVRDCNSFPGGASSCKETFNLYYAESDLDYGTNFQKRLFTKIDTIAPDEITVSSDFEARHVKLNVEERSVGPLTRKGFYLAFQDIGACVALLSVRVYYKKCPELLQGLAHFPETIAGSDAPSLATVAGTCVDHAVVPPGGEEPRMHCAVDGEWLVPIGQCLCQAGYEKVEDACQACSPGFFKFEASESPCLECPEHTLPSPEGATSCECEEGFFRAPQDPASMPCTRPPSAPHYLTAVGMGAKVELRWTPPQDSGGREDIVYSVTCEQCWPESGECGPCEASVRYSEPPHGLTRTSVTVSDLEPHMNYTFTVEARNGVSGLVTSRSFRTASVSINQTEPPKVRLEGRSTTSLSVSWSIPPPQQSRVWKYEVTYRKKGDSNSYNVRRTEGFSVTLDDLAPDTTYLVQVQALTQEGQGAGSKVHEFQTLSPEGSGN
T3 sequence (Q03145 26-977): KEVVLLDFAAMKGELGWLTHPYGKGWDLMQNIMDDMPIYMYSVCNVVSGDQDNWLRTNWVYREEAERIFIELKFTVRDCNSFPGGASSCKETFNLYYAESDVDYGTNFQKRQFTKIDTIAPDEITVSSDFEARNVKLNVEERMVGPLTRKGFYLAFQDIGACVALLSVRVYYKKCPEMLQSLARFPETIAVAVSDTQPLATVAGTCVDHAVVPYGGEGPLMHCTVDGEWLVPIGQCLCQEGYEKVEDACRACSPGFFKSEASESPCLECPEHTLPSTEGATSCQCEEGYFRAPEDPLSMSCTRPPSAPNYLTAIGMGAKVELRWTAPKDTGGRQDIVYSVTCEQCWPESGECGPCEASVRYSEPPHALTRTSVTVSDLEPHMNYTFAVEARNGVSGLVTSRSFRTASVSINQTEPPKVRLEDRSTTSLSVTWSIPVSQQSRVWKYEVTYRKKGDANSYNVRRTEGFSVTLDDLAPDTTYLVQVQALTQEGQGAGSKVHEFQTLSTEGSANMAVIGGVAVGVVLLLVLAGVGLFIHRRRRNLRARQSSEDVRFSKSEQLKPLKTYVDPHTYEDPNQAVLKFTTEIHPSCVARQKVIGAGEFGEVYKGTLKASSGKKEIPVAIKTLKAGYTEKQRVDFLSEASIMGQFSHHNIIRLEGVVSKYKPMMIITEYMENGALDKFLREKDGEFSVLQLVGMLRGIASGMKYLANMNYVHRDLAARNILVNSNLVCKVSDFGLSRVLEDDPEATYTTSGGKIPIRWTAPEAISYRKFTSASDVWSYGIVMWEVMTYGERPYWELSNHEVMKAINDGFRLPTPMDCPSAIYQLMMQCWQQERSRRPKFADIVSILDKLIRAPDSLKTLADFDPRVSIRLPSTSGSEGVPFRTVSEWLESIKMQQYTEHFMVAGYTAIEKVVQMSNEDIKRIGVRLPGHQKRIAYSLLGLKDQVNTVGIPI

B1: scFv-3C (scFv)
scFv: QVQLVQSGGGLVQPGGSLRLSCAASGFTFSSYAMHWVRQAPGKGLEWVTVISPDGHNTYYADSVKGRFTISRDNSKNTLYLQMNSLRAEDTAVYYCARASVGATGPFDIWGQGTLVTVSSASTGGGGSGGGGSGGGGSGGGGSSSELTQPPSVSVAPGQTVTITCQGDSLRSYYASWYQQKPGTAPKLLIYGENNRPSGVPDRFSGSSSGTSASLTITGAQAEDEADYYCNSRDSSGTHLTVFGGGTKLTVLGGGSGGC
notes: also called clone 3
[1]
  Fold Improvement in Protein A Binding Capacity: 6 fold
[2]
  percent scFv-conjugate (not liposome-bound) EphA2 binding on-rate: 112%
[3]
  percent antigen binding on-rate remaining in the scFv-conjugate following thermal stress (Study 2): 46.9%
[4]
  percent antigen binding on-rate remaining in the scFv-conjugate following thermal stress (Study 1): 56.5%
[5]
  percent scFv-conjugated-liposome EphA2 binding on-rate: 119%

B2: scFv-2C (scFv)
scFv: B1 scFv with T49S, D54A, H56R, T58K
notes: also called clone 2
[1]
  Fold Improvement in Protein A Binding Capacity: 5.5 fold
[2]
  percent scFv-conjugate (not liposome-bound) EphA2 binding on-rate: 105%
[3]
  percent antigen binding on-rate remaining in the scFv-conjugate following thermal stress (Study 2): 26.9%
[4]
  percent antigen binding on-rate remaining in the scFv-conjugate following thermal stress (Study 1): 44.6%
[5]
  percent scFv-conjugated-liposome EphA2 binding on-rate: 117%

B3: TS1C (scFv)
scFv: B1 scFv with T49A, P53Y, H56S, T58K
notes: also called parental clone TS1 (C form)
[2]
  percent scFv-conjugate (not liposome-bound) EphA2 binding on-rate: 100%
[3]
  percent antigen binding on-rate remaining in the scFv-conjugate following thermal stress (Study 2): 13%
[6]
  Fold Improvement in Protein A Binding Capacity: 1 fold
[4]
  percent antigen binding on-rate remaining in the scFv-conjugate following thermal stress (Study 1): 25.2%
[5]
  percent scFv-conjugated-liposome EphA2 binding on-rate: 100%

B4: scFv-11C (scFv)
scFv: B1 scFv with T49A, P53H, D54H, H56S
notes: also called clone 11
[1]
  Fold Improvement in Protein A Binding Capacity: 8.5 fold
[2]
  percent scFv-conjugate (not liposome-bound) EphA2 binding on-rate: 109%
[3]
  percent antigen binding on-rate remaining in the scFv-conjugate following thermal stress (Study 2): -0.09%
[4]
  percent antigen binding on-rate remaining in the scFv-conjugate following thermal stress (Study 1): 1.6%
[5]
  percent scFv-conjugated-liposome EphA2 binding on-rate: 120%

B5: scFv-7C (scFv)
scFv: B1 scFv with T49S, D54A, H56P
notes: also called clone 7
[1]
  Fold Improvement in Protein A Binding Capacity: 10.3 fold
[2]
  percent scFv-conjugate (not liposome-bound) EphA2 binding on-rate: 110%
[3]
  percent antigen binding on-rate remaining in the scFv-conjugate following thermal stress (Study 2): 4.8%
[4]
  percent antigen binding on-rate remaining in the scFv-conjugate following thermal stress (Study 1): 5.8%
[5]
  percent scFv-conjugated-liposome EphA2 binding on-rate: 119%

B6: scFv-4C (scFv)
scFv: B1 scFv with D54H, H56R, T58K
notes: also called clone 4
[1]
  Fold Improvement in Protein A Binding Capacity: 5.8 fold
[2]
  percent scFv-conjugate (not liposome-bound) EphA2 binding on-rate: 97.3%
[3]
  percent antigen binding on-rate remaining in the scFv-conjugate following thermal stress (Study 2): 5.6%
[4]
  percent antigen binding on-rate remaining in the scFv-conjugate following thermal stress (Study 1): 8.6%
[5]
  percent scFv-conjugated-liposome EphA2 binding on-rate: 118%

B7: scFv-10C (scFv)
scFv: B1 scFv with T49S, V50A, D54P
notes: also called clone 10
[1]
  Fold Improvement in Protein A Binding Capacity: 12.3 fold
[2]
  percent scFv-conjugate (not liposome-bound) EphA2 binding on-rate: 104%
[3]
  percent antigen binding on-rate remaining in the scFv-conjugate following thermal stress (Study 2): 98.8%
[4]
  percent antigen binding on-rate remaining in the scFv-conjugate following thermal stress (Study 1): 88.9%
[5]
  percent scFv-conjugated-liposome EphA2 binding on-rate: 110%

B8: scFv-12 (scFv)
scFv: QVQLVQSGGGLVQPGGSLRLSCAASGFTFSSYAMHWVRQAPGKGLEWVAGISHPGDNTYYADSVKGRFTISRDNSKNTLYLQMNSLRAEDTAVYYCARASVGATGPFDIWGQGTLVTVSSASTGGGGSGGGGSGGGGSGGGGSSSELTQPPSVSVAPGQTVTITCQGDSLRSYYASWYQQKPGTAPKLLIYGENNRPSGVPDRFSGSSSGTSASLTITGAQAEDEADYYCNSRDSSGTHLTVFGGGTKLTVLG
[7]
  binding result: no binding
